{"source": "paper PMC1560149", "about": "“The DNA polymerase activity of Pol ε holoenzyme is required for rapid and efficient chromosomal DNA replication in Xenopus egg extracts” (BMC Biochemistry, 2006)", "binders": {"B1": {"name": "p12 (the third subunit of xPol ε complex) (natural protein, Xenopus, UniProt Q0EAE6 1-116, looked up)", "chain": "MAAEVAAPESLEGSGSQEDAGPSSPPAAHPAPCPSKQARLPLSRIKALMKADPDLSLASQESVFVISKATELFIETIAKDAYLYAQQGKRKTLQRKDLDNAIDAIDEFAFLEGTLD", "notes": "p12 subunit of Xenopus DNA polymerase epsilon, 116 amino acids; also called xPol ε p12; source: sf21 insect cells, baculovirus, co-expressed, in crude extract"}}, "molecular_target": "T1, p17 (the fourth subunit of xPol ε complex) (Xenopus, UniProt Q6WSQ3 1-147)", "T1 construct": "p17 subunit of Xenopus DNA polymerase epsilon, 147 amino acids; also called xPol ε p17; source: sf21 insect cells, baculovirus, co-expressed, in crude extract", "T1 sequence (looked up)": "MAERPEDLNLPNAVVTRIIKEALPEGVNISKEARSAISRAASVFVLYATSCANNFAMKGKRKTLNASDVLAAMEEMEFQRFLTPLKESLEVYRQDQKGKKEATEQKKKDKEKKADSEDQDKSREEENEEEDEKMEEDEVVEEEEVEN", "experiment": "not stated; data not shown; p12 and p17 in insect cells"}
{"binder": "B1", "values": [{"measurement": "stoichiometry N", "result": 1}]}
